Here are results for 5 substances from publication PMC4707092.

“And” between values parts separate entries of the source, which are not always exact repeats. Identical values can stand only once. Like-named read-outs stand apart in the source and are kept apart here.

One experiment concerns the target C3b (UniProt P01024). In words: SPR. (Surface plasmon resonance follows binding to a sensor surface in real time, without labels.)
The target in experiment [1] is C3b C3b (Homo sapiens) (UniProt P01024). The following applies: cited from earlier work.
The target is the same in experiment [2]. The following applies: cited from earlier work. This is another data set of the same source.

For orientation: Kd means the concentration at which binding is half-saturated.

Chain of C3b C3b (Homo sapiens) (P01024 566-670): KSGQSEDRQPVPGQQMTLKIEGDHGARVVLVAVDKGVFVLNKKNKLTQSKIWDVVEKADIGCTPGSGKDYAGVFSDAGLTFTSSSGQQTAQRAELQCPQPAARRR

In the experiment with C3b, FHΔ10–15 yielded a KD1 (1:2 binding model, first of two independent sites) of 1.7 µM and a KD2 (1:2 binding model, second of two independent sites) of 5.6 µM. On to “Factor H (from UniProt P08603 19-1231) (natural protein)”, for which the Kd with C3b is 0.647 µM. For the substance “Factor H CCPs 19-20 (from UniProt P08603)”, the Kd with C3b C3b (Homo sapiens) [1] was 5.4 µM and 4 µM. As for Factor H CCPs 1-4 (from UniProt P08603), in the experiment with C3b C3b (Homo sapiens) [2], the Kd was 11 µM and 14 µM. “Factor H-like protein 1 (natural protein)” came in with a Kd with C3b of 1.52 µM.
